Source: the RNAGym collection of RNA variant scans (doi:10.1073/pnas.2313332121)

B1: TPR t1 (parent)
chain: GACCAAUCUGCCCUCAGAGCUCGAGAACAUCUUCGGAUGCAGAGGAGGCAGGCUUCGGUGGCGCGAUAGCGCCAACGUCCUCAACCUCCAAUGCAUCCCACCACAUGAUGAUGCCUGAAGAGCCUUGGUUUUUUG

Variants of: B1
Experiment: polymerase ribozyme fitness, log enrichment relative to wild type (log ratio); higher = more active; in vitro selection for triplet polymerase activity
How it was run: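 In triplicate, a single round of in vitro selection was run on each mutant library, PCR-built and transcribed, covering one subunit of a heterodimeric triplet polymerase ribozyme. Frozen incubation at −7 °C followed annealing with a biotinylated primer, partner subunit and triplets, and extended constructs were then gel-excised, streptavidin-captured and taken through RT-PCR. Fitness is the logarithm of genotype enrichment over wild-type enrichment, from inverse-variance-weighted replicate averages of Illumina-sequenced inputs and outputs. […] only genotypes with ≥10 input reads and ≥1 read per output were kept.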

Variant | polymerase ribozyme fitness (log ratio)
GACCAAUCUGCCCUCAGAGCUCGAGAACAUCUUCGGAUGCAGAGGAGGCAGGCUUCGGUGGCGCGCUAACGCCAACGUCCUCAACCUCCAAUGCAUCCCACCACAUGAUGAUGCCUGAAGAGCCUUGGUUUUUUG [A66C G69A] | -3.84
GACCAAUCUGCCCUCAGAGCUCGAGAACAUCUUCGGAUGCAGAGGAGGCAGGCUUCGGUGGCGCGUUAGCGCCAACGUCCUCAUCCUCUAAUGCAUCCCACCACAUGAUGAGGCCUGAAGAGCCUUGGUUUUUUG [A66U A84U C89U U112G] | -2.3
GACCAAUCUGCCCUCAGAGCUCGAGAACAUCUUCGGAUGCAGAGGAGGCAGGCUUCGGUGGCGCGGUAGCGCCAACGUCCUCAACCUCCAAUGCAUCCCACCACAUGAUGAUGCCUGAAGAGCCUUUGUUUUUUG [A66G G127U] | -1.49
GACCAAUCUGCCCUCAGAGCUCGAGAACAUCUUCGGAUGCAGAGGAGGCAGGCUUCGGUGGCGCGGUAGCGCCAACGUCCUCAACCUCCAAUGCAUCCCACCACAUGAUGAUGCCUGAAGAGCCUUGGUUUUUUG [A66G] | -0.466
GACCAAUCUGCCCUCAGAGCUCGAGAACAUCUUCGGAUGCAGAGGAGGCAGGCUUCGGUGGCGCGCUAGCGCCAACGUCCUCAACCUCCAAUGCAUCCCACCACAUGAUGAUGCCUGAAGAGCCUUGGUUUUUUG [A66C] | -1.32
GACCAAUCUGCCCUCAGAGCUCGAGAACAUCUUCGGAUGCAGAGGAGGCAGGCUUCGGUGGCGCGUUAGCGCCAACGUCCUCAACCUCCAAUGCAUCCCACCACAUGAUGAUGCCUGAAGAGCCUUGGUUUUUUG [A66U] | -0.954
GACCAAUCUGCCCUCAGAGCUCGAGAACAUCUUCGGAUGCAGAGGAGGCAGGCUUCGGUGGCGCGUUGGCGCCAACGUCCUCAACCUCCAAUGCAUCCCACCACAUGAUGAUGCCUGAAGAGCCUUGGUUUUUUG [A66U A68G] | -3.88
GACCAAUCUGCCCUCAGAGCUCGAGAACAUCUUCGGAUGCAGAGGAGGCAGGCUUCGGUGGCGCGCUAGCGCCAACGUCCUCAACCUCCAAUGCAUCCCACCACAUGAUGAUCCCUGAAGAGCCUUGGUUUUUUG [A66C G113C] | -3.98
GACCAAUCUGCCCUCAGAGCUCGAGAACAUCUUCGGAUGCAGAGGAGGCAGGCUUCGGUGGCGCGUUAGCGCCAACGUUCUCAACCUCCAAUGCAUCCCACCACAUGAUGAUGCCUGAAGAGCCUUGGUUUUUUG [A66U C79U] | -0.834
GACCAAUCUGCCCUCAGAGCUCGAGAACAUCUUCGGAUGCAGAGGAGGCAGGCUUCGGUGGCGCGGUAGCGCCAACGUGCUCAACCUCCAAUGCAUCCCACCACAUGAUGAUGCCUGAAAAGCCUUGGUUUUUUG [A66G C79G G120A] | -3.49
GACCAAUCUGCCCUCAGAGCUCGAGAACAUCUUCGGAUGCAGAGGAGGCAGGCUUCGGUGGCGCGUUAGCGCUAACGUCCUCUACCUCCAAUGCAUCCCUCCACAUGAUGAUGCCUGAAGAGUCGUGGUUUUUUG [A66U C73U A83U A100U C123U U125G] | -2.19
GACCAAUCUGCCCUCAGAGCUCGAGAACAUCUUCGGAUGCAGAGGAGGCAGGCUUCGGUGGCGUGAUAGCGCCAACGUCCUCAACCUCCAACGCAUCCCACCACAUGAUGAUACCUGAAGAGCCUUUGUUCUUUG [C64U U92C G113A G127U U131C] | -3.48
GACCAAUCUGCCCUCAGAGCUCGAGAACAUCUUCGGAUGCAGAGGAGGCAGGCUUCGGUGGCGUGAUAGCGCCAACGCCCUCAACCUCCAAUGCACCCCACCACAUGAUGAUGCCUGAAGAGCUUCGGUUUUGUG [C64U U78C U96C C124U U126C U133G] | -0.424
GACCAAUCUGCCCUCAGAGCUCGAGAACAUCUUCGGAUGCAGAGGAGGCAGGCUUCGGUGGCGUGAUAGCGCCAACGUCCUCAACCUCCAAUGCAUCCCACCACAUGAUGAUGCCGCAAGAGCCUUGGUUUUUUG [C64U U116G G117C] | -2.86
GACCAAUCUGCCCUCAGAGCUCGAGAACAUCUUCGGAUGCAGAGGAGGCAGGCUUCGGUGGCGCGUUGGCGCAAACGUCCUAAACCUCCAAUGCAUCCCACCACAUGAUGAUGCCUGAAGAGCCUUGGUUUUUUG [A66U A68G C73A C82A] | -4.09
GACCAAUCUGCCCUCAGAGCUCGAGAACAUCUUCGGAUGCAGAGGAGGCAGGCUUCGGUGGCGCGCUAGCGCCAACGUCCUCAACCUCCAUUGCAUCCCACCACAUGAUGAUGCCUGAAGAGCCUUGGUUUUUUG [A66C A91U] | -4.65
GACCAAUCUGCCCUCAGAGCUCGAGAACAUCUUCGGAUGCAGAGGAGGCAGGCUUCGGUGGCGUGAUAGCGCCAACGUCCUCAACCUCCAAUGCAUCCCACCACAUGAUGAUGCCUGAAAAGCCUUGGUUUUUUA [C64U G120A G135A] | 0.278
GACCAAUCUGCCCUCAGAGCUCGAGAACAUCUUCGGAUGCAGAGGAGGCAGGCUUCGGUGGCGCGGUAGCGCCAACGUCCUCAACCUCCAAUGCAUCCCACCACAUGAUGAUGCCCGAAGAGCCUUGGUUUUUUG [A66G U116C] | -2.62
GACCAAUCUGCCCUCAGAGCUCGAGAACAUCUUCGGAUGCAGAGGAGGCAGGCUUCGGUGGCGUGAUAGCGCCAACGGCCUCAACCUCCAAUGCAUCCCACCACAUGAUGAUGCCUGAAGAGCCUUGGUUUUUUG [C64U U78G] | -0.112
GACCAAUCUGCCCUCAGAGCUCGAGAACAUCUUCGGAUGCAGAGGAGGCAGGCUUCGGUGGCGUGAUAGCUCCAACGUCCUCAACCUUCAAUGCAUCCCACCACAUGAUGAUGCCUGAAGAGCCUUGGUUUUUUG [C64U G71U C88U] | -5.13
GACCAAUCUGCCCUCAGAGCUCGAGAACAUCUUCGGAUGCAGAGGAGGCAGGCUUCGGUGGCGCGGUAGCGACAACGUACUCAUCCUCCAAUGCAUCCCACCACAUGAUGAUGCCUGAAGAGCCUUGGUUUUUUG [A66G C72A C79A A84U] | -4.61

Variant | polymerase ribozyme fitness (log ratio)
GACCAAUCUGCCCUCAGAGCUCGAGAACAUCUUCGGAUGCAGAGGAGGCAGGCUUCGGUGGCGCAAUAGCGCCAACGUCCUCAACCUUCAAUGCAUCCCACCACAUGAUGAUGCCUGAAGAGCCUUGGUUUUUUG [G65A C88U] | -5.19
GACCAAUCUGCCCUCAGAGCUCGAGAACAUCUUCGGAUGCAGAGGAGGCAGGCUUCGGUGGCGCGGUAGCGCCAACGUCCUCAACCUCCAAUGCAUCCCACCACAUGAAGAUGCCUGAAGAGCCUUGGUUUUUUG [A66G U109A] | -6.35
GACCAAUCUGCCCUCAGAGCUCGAGAACAUCUUCGGAUGCAGAGGAGGCAGGCUUCGGUGGCGCGCUAGCGCCAACGUCCUCAACCUCCAAUGUAUCCCACCACAUGAUGAUGCCUGAAGAGCCUUGGUUUUUUG [A66C C94U] | -0.92
GACCAAUCUGCCCUCAGAGCUCGAGAACAUCUUCGGAUGCAGAGGAGGCAGGCUUCGGUGGCGCGUUAGCGUCAACGUCCUCAACCUCCAAUGCAUCCCACCACAUGAUGAUGCGUGAAGAGCCUUGGUUUUUUG [A66U C72U C115G] | -2.47
GACCAAUCUGCCCUCAGAGCUCGAGAACAUCUUCGGAUGCAGAGGAGGCAGGCUUCGGUGGCGCUAUAGCACCAACGUCCUCAACCUCCAAUGCAUCCCACCACAUGAUGAUGCCUGAAGAGCCUUGGUUUUUUG [G65U G71A] | -4.69
GACCAAUCUGCCCUCAGAGCUCGAGAACAUCUUCGGAUGCAGAGGAGGCAGGCUUCGGUGGCGCCAUAGCGCCAACGUCCUCAACCUCCAAUGCAUCCCACCACAUGAUGAUGCCUGAAGAGGCUUGGUUUUUUG [G65C C123G] | -3.83
GACCAAUCUGCCCUCAGAGCUCGAGAACAUCUUCGGAUGCAGAGGAGGCAGGCUUCGGUGGCGUGAUAGCGCCAACGUCCUCAACCUCCAAUGCAUCCCACCACAUAAUGAUGCCUGAAGAGCCUUGGUUUUUUG [C64U G107A] | -3.01
GACCAAUCUGCCCUCAGAGCUCGAGAACAUCUUCGGAUGCAGAGGAGGCAGGCUUCGGUGGCGCGUUAGCGCCAACGUCCUCAUCCUCCAAUGCAUCCCACCACAUGAUCAUGCCUGAAGAGCCUUGGUCUUUUG [A66U A84U G110C U130C] | -5.62
GACCAAUCUGCCCUCAGAGCUCGAGAACAUCUUCGGAUGCAGAGGAGGCAGGCUUCGGUGGCGCGCUAGCGCCAACGUCCUCAACCUCCAAUGCAUCCCACCACAUGAUGAUGCCUGAAGAGCCUUGGAUUUUUG [A66C U129A] | -2.92
GACCAAUCUGCCCUCAGAGCUCGAGAACAUCUUCGGAUGCAGAGGAGGCAGGCUUCGGUGGCGCGCUAGAGCCAACGUCCUCAACCUCCAAUGCAUCCCACCACAUGAUGAUGCCUGAAGAGCCUUGGUUUUUUG [A66C C70A] | -3.75
GACCAAUCUGCCCUCAGAGCUCGAGAACAUCUUCGGAUGCAGAGGAGGCAGGCUUCGGUGGCGUGAUAGCGCCAACGUCCUCAACCUCCAAUGCAUCCCACCACACGAUGAUGCCUGAAGAGCCUUGGUUUUUUG [C64U U106C] | -0.52
GACCAAUCUGCCCUCAGAGCUCGAGAACAUCUUCGGAUGCAGAGGAGGCAGGCUUCGGUGGCGUGAUAGCGCCAACGUCCUCAACCUCCAAUGCAUCCCACCACAUGAUGAUGCCUGAAGAGCCUUCGUUUUUUG [C64U G127C] | -1.82
GACCAAUCUGCCCUCAGAGCUCGAGAACAUCUUCGGAUGCAGAGGAGGCAGGCUUCGGUGGCGUGAUAGCGCCAACGUCCUCAACCUCCAAUGCAUCCCACCACAUGAUGAUGCCUAAAGAGCCUUGGUUUUUUG [C64U G117A] | -1.12
GACCAAUCUGCCCUCAGAGCUCGAGAACAUCUUCGGAUGCAGAGGAGGCAGGCUUCGGUGGCGUGAUAGCGCCAACGUCCUCAACCUCCAAUGCAUCCCACCACAUGAUGAUGCCUGAAGAGCCUUGGUUUUUUU [C64U G135U] | -0.52
GACCAAUCUGCCCUCAGAGCUCGAGAACAUCUUCGGAUGCAGAGGAGGCAGGCUUCGGUGGCGCGUUAGCGCAAACGUCCUCAACCUCUAAUGCAUCCCACCACAUGAUGAUGCCUGAAGAGCCUUGGUUUUUUG [A66U C73A C89U] | -1.72
GACCAAUCUGCCCUCAGAGCUCGAGAACAUCUUCGGAUGCAGAGGAGGCAGGCUUCGGUGGCGCGGUAGCGCCAACGUCCUUAACCUGCAAUGCAUCCCACCACAUGAUGAUGCCUGAAGAGCUUUGGUUUUUUG [A66G C82U C88G C124U] | -0.202
GACCAAUCUGCCCUCAGAGCUCGAGAACAUCUUCGGAUGCAGAGGAGGCAGGCUUCGGUGGCGCGCUAGCGCCAACGUCCUCAACCUCCGAUGCAUCCCACCACAUGAUGAUGGCUGAAGAGCCUUGGUUUUUUG [A66C A90G C114G] | -4.05
GACCAAUCUGCCCUCAGAGCUCGAGAACAUCUUCGGAUGCAGAGGAGGCAGGCUUCGGUGGCGCGCUAGCGCCAACGUCCUCAACCUCCAAUGCAUCCCACCACAUGAUGAUGCCUGAAGAGCCUUGGUGUUAUG [A66C U130G U133A] | -1.91
GACCAAUCUGCCCUCAGAGCUCGAGAACAUCUUCGGAUGCAGAGGAGGCAGGCUUCGGUGGCGCGUUAGCGCCAACGUCCUCUACCUCCAAUGCAUCCCACCACAUGAUGAUGCCUGAAGAGCCUUGGUUUUUUG [A66U A83U] | -1.4
GACCAAUCUGCCCUCAGAGCUCGAGAACAUCUUCGGAUGCAGAGGAGGCAGGCUUCGGUGGCGCGCUAACGCCAACGUCCUCAACCUCCAAUGCAUCCCACCACAUGAUGAUGCCUGAAGAGUCUAGGUUUUUUG [A66C G69A C123U U126A] | -4.63
GACCAAUCUGCCCUCAGAGCUCGAGAACAUCUUCGGAUGCAGAGGAGGCAGGCUUCGGUGGCGCGGUAGCGCCAACAUCCUCAACCUCCAAUGUAUCCCACCACAUGAUGAUGCAUGAAGAGCCUUGGUUUAUUG [A66G G77A C94U C115A U132A] | -0.858
